Assays:
[1] = immunofluorescence co-localisation with ERGIC-53, nocodazole-treated cells; settings: glycan lost; control: wild type
[2] = immunofluorescence co-localisation with ER marker calnexin; settings: glycan lost; control: wild type
[3] = DOPA oxidase specific activity, cells at 37°C; settings: glycan lost; control: wild type
[4] = Endo H resistance (ER exit), immunoblot; settings: glycan lost; control: wild type
[5] = DOPA oxidase recovery after culture at 31°C; settings: glycan lost; control: wild type
[6] = pulse-chase, DTT accessibility of disulfides, non-reducing SDS-PAGE; settings: glycan lost; control: wild type
[7] = pulse-chase IP with or without kifunensine; settings: glycan lost; control: wild type (accumulates with kifunensine)
[8] = pulse-chase IP of wild type, degradation; settings: glycan changed form; control: untreated

| Protein | localisation_or_trafficking [1] | localisation_or_trafficking [2] | enzymatic_activity, percent_of_wt [3] | localisation_or_trafficking [4] | stability_or_folding [5] | stability_or_folding [6] | other: kifunensine rescue from degradation [7] | degradation_or_half_life [8] |
| --- | --- | --- | --- | --- | --- | --- | --- | --- |
| human tyrosinase: Δ2 (protein) parent chain: MLLAVLYCLLWSFQTSAGHFPRACVSSKNLMEKECCPPWSGDRSPCGQLSGRGSCQNILLSNAPLGPQFPFTGVDDRESWPSVFYNRTCQCSGNFMGFNCGNCKFGFWGPNCTERRLLVRRNIFDLSAPEKDKFFAYLTLAKHTISSDYVIPIGTYGQMKNGSTPMFNDINIYDLFVWMHYYVSMDALLGGSEIWRDIDFAHEAPAFLPWHRLFLLRWEQEIQKLTGDENFTIPYWDWRDAEKCDICTDEYMGGQHPTNPNLLSPASFFSSWQIVCSRLEEYNSHQSLCNGTPEGPLRRNPGNHDKSRTPRLPSSADVEFCLSLTQYESGSMDKAANFSFRNTLEGFASPLTGIADASQSSMHNALHIYMNGTMSQVQGSANDPIFLLHHAFVDSIFEQWLRRHRPLQEVYPEANAPIGHNRESYMVPFIPLYRNGDFFISSKDLGYDYSYLQDSDPDSFQDYIKSYLEQASRIWSWLLGAAMVGAVLTALLAGLVSLLCRHKRKQLPEEKQPLLMEKEDYHSLYQSHL | no change | changes | decreases, The remaining mutants show intermediate activity, ranging from 25% to 30% | abolishes | decreases |  |  |  |
| human tyrosinase: Δ7 (protein) parent chain: MLLAVLYCLLWSFQTSAGHFPRACVSSKNLMEKECCPPWSGDRSPCGQLSGRGSCQNILLSNAPLGPQFPFTGVDDRESWPSVFYNRTCQCSGNFMGFNCGNCKFGFWGPNCTERRLLVRRNIFDLSAPEKDKFFAYLTLAKHTISSDYVIPIGTYGQMKNGSTPMFNDINIYDLFVWMHYYVSMDALLGGSEIWRDIDFAHEAPAFLPWHRLFLLRWEQEIQKLTGDENFTIPYWDWRDAEKCDICTDEYMGGQHPTNPNLLSPASFFSSWQIVCSRLEEYNSHQSLCNGTPEGPLRRNPGNHDKSRTPRLPSSADVEFCLSLTQYESGSMDKAANFSFRNTLEGFASPLTGIADASQSSMHNALHIYMNGTMSQVQGSANDPIFLLHHAFVDSIFEQWLRRHRPLQEVYPEANAPIGHNRESYMVPFIPLYRNGDFFISSKDLGYDYSYLQDSDPDSFQDYIKSYLEQASRIWSWLLGAAMVGAVLTALLAGLVSLLCRHKRKQLPEEKQPLLMEKEDYHSLYQSHL | no change | changes | abolishes | abolishes | abolishes | decreases | no change |  |
| human tyrosinase: Δ3 (protein) parent chain: MLLAVLYCLLWSFQTSAGHFPRACVSSKNLMEKECCPPWSGDRSPCGQLSGRGSCQNILLSNAPLGPQFPFTGVDDRESWPSVFYNRTCQCSGNFMGFNCGNCKFGFWGPNCTERRLLVRRNIFDLSAPEKDKFFAYLTLAKHTISSDYVIPIGTYGQMKNGSTPMFNDINIYDLFVWMHYYVSMDALLGGSEIWRDIDFAHEAPAFLPWHRLFLLRWEQEIQKLTGDENFTIPYWDWRDAEKCDICTDEYMGGQHPTNPNLLSPASFFSSWQIVCSRLEEYNSHQSLCNGTPEGPLRRNPGNHDKSRTPRLPSSADVEFCLSLTQYESGSMDKAANFSFRNTLEGFASPLTGIADASQSSMHNALHIYMNGTMSQVQGSANDPIFLLHHAFVDSIFEQWLRRHRPLQEVYPEANAPIGHNRESYMVPFIPLYRNGDFFISSKDLGYDYSYLQDSDPDSFQDYIKSYLEQASRIWSWLLGAAMVGAVLTALLAGLVSLLCRHKRKQLPEEKQPLLMEKEDYHSLYQSHL | no change | changes | decreases, The remaining mutants show intermediate activity, ranging from 25% to 30% | abolishes | decreases |  |  |  |
| human tyrosinase: kifunensine (protein) parent chain: MLLAVLYCLLWSFQTSAGHFPRACVSSKNLMEKECCPPWSGDRSPCGQLSGRGSCQNILLSNAPLGPQFPFTGVDDRESWPSVFYNRTCQCSGNFMGFNCGNCKFGFWGPNCTERRLLVRRNIFDLSAPEKDKFFAYLTLAKHTISSDYVIPIGTYGQMKNGSTPMFNDINIYDLFVWMHYYVSMDALLGGSEIWRDIDFAHEAPAFLPWHRLFLLRWEQEIQKLTGDENFTIPYWDWRDAEKCDICTDEYMGGQHPTNPNLLSPASFFSSWQIVCSRLEEYNSHQSLCNGTPEGPLRRNPGNHDKSRTPRLPSSADVEFCLSLTQYESGSMDKAANFSFRNTLEGFASPLTGIADASQSSMHNALHIYMNGTMSQVQGSANDPIFLLHHAFVDSIFEQWLRRHRPLQEVYPEANAPIGHNRESYMVPFIPLYRNGDFFISSKDLGYDYSYLQDSDPDSFQDYIKSYLEQASRIWSWLLGAAMVGAVLTALLAGLVSLLCRHKRKQLPEEKQPLLMEKEDYHSLYQSHL |  |  |  |  |  |  |  | increases |
| human tyrosinase: Δ1 (protein) parent chain: MLLAVLYCLLWSFQTSAGHFPRACVSSKNLMEKECCPPWSGDRSPCGQLSGRGSCQNILLSNAPLGPQFPFTGVDDRESWPSVFYNRTCQCSGNFMGFNCGNCKFGFWGPNCTERRLLVRRNIFDLSAPEKDKFFAYLTLAKHTISSDYVIPIGTYGQMKNGSTPMFNDINIYDLFVWMHYYVSMDALLGGSEIWRDIDFAHEAPAFLPWHRLFLLRWEQEIQKLTGDENFTIPYWDWRDAEKCDICTDEYMGGQHPTNPNLLSPASFFSSWQIVCSRLEEYNSHQSLCNGTPEGPLRRNPGNHDKSRTPRLPSSADVEFCLSLTQYESGSMDKAANFSFRNTLEGFASPLTGIADASQSSMHNALHIYMNGTMSQVQGSANDPIFLLHHAFVDSIFEQWLRRHRPLQEVYPEANAPIGHNRESYMVPFIPLYRNGDFFISSKDLGYDYSYLQDSDPDSFQDYIKSYLEQASRIWSWLLGAAMVGAVLTALLAGLVSLLCRHKRKQLPEEKQPLLMEKEDYHSLYQSHL | no change | changes | decreases, The remaining mutants show intermediate activity, ranging from 25% to 30% | decreases | decreases |  |  |  |
| human tyrosinase: Δ4 (protein) parent chain: MLLAVLYCLLWSFQTSAGHFPRACVSSKNLMEKECCPPWSGDRSPCGQLSGRGSCQNILLSNAPLGPQFPFTGVDDRESWPSVFYNRTCQCSGNFMGFNCGNCKFGFWGPNCTERRLLVRRNIFDLSAPEKDKFFAYLTLAKHTISSDYVIPIGTYGQMKNGSTPMFNDINIYDLFVWMHYYVSMDALLGGSEIWRDIDFAHEAPAFLPWHRLFLLRWEQEIQKLTGDENFTIPYWDWRDAEKCDICTDEYMGGQHPTNPNLLSPASFFSSWQIVCSRLEEYNSHQSLCNGTPEGPLRRNPGNHDKSRTPRLPSSADVEFCLSLTQYESGSMDKAANFSFRNTLEGFASPLTGIADASQSSMHNALHIYMNGTMSQVQGSANDPIFLLHHAFVDSIFEQWLRRHRPLQEVYPEANAPIGHNRESYMVPFIPLYRNGDFFISSKDLGYDYSYLQDSDPDSFQDYIKSYLEQASRIWSWLLGAAMVGAVLTALLAGLVSLLCRHKRKQLPEEKQPLLMEKEDYHSLYQSHL | no change | changes | decreases, The remaining mutants show intermediate activity, ranging from 25% to 30% | abolishes | decreases |  |  |  |
| human tyrosinase: Δall (protein) parent chain: MLLAVLYCLLWSFQTSAGHFPRACVSSKNLMEKECCPPWSGDRSPCGQLSGRGSCQNILLSNAPLGPQFPFTGVDDRESWPSVFYNRTCQCSGNFMGFNCGNCKFGFWGPNCTERRLLVRRNIFDLSAPEKDKFFAYLTLAKHTISSDYVIPIGTYGQMKNGSTPMFNDINIYDLFVWMHYYVSMDALLGGSEIWRDIDFAHEAPAFLPWHRLFLLRWEQEIQKLTGDENFTIPYWDWRDAEKCDICTDEYMGGQHPTNPNLLSPASFFSSWQIVCSRLEEYNSHQSLCNGTPEGPLRRNPGNHDKSRTPRLPSSADVEFCLSLTQYESGSMDKAANFSFRNTLEGFASPLTGIADASQSSMHNALHIYMNGTMSQVQGSANDPIFLLHHAFVDSIFEQWLRRHRPLQEVYPEANAPIGHNRESYMVPFIPLYRNGDFFISSKDLGYDYSYLQDSDPDSFQDYIKSYLEQASRIWSWLLGAAMVGAVLTALLAGLVSLLCRHKRKQLPEEKQPLLMEKEDYHSLYQSHL |  |  |  |  |  |  | abolishes |  |
| human tyrosinase: Δ(5,6,7) (protein) parent chain: MLLAVLYCLLWSFQTSAGHFPRACVSSKNLMEKECCPPWSGDRSPCGQLSGRGSCQNILLSNAPLGPQFPFTGVDDRESWPSVFYNRTCQCSGNFMGFNCGNCKFGFWGPNCTERRLLVRRNIFDLSAPEKDKFFAYLTLAKHTISSDYVIPIGTYGQMKNGSTPMFNDINIYDLFVWMHYYVSMDALLGGSEIWRDIDFAHEAPAFLPWHRLFLLRWEQEIQKLTGDENFTIPYWDWRDAEKCDICTDEYMGGQHPTNPNLLSPASFFSSWQIVCSRLEEYNSHQSLCNGTPEGPLRRNPGNHDKSRTPRLPSSADVEFCLSLTQYESGSMDKAANFSFRNTLEGFASPLTGIADASQSSMHNALHIYMNGTMSQVQGSANDPIFLLHHAFVDSIFEQWLRRHRPLQEVYPEANAPIGHNRESYMVPFIPLYRNGDFFISSKDLGYDYSYLQDSDPDSFQDYIKSYLEQASRIWSWLLGAAMVGAVLTALLAGLVSLLCRHKRKQLPEEKQPLLMEKEDYHSLYQSHL |  |  |  |  |  |  | decreases |  |
| human tyrosinase: Δ6 (protein) parent chain: MLLAVLYCLLWSFQTSAGHFPRACVSSKNLMEKECCPPWSGDRSPCGQLSGRGSCQNILLSNAPLGPQFPFTGVDDRESWPSVFYNRTCQCSGNFMGFNCGNCKFGFWGPNCTERRLLVRRNIFDLSAPEKDKFFAYLTLAKHTISSDYVIPIGTYGQMKNGSTPMFNDINIYDLFVWMHYYVSMDALLGGSEIWRDIDFAHEAPAFLPWHRLFLLRWEQEIQKLTGDENFTIPYWDWRDAEKCDICTDEYMGGQHPTNPNLLSPASFFSSWQIVCSRLEEYNSHQSLCNGTPEGPLRRNPGNHDKSRTPRLPSSADVEFCLSLTQYESGSMDKAANFSFRNTLEGFASPLTGIADASQSSMHNALHIYMNGTMSQVQGSANDPIFLLHHAFVDSIFEQWLRRHRPLQEVYPEANAPIGHNRESYMVPFIPLYRNGDFFISSKDLGYDYSYLQDSDPDSFQDYIKSYLEQASRIWSWLLGAAMVGAVLTALLAGLVSLLCRHKRKQLPEEKQPLLMEKEDYHSLYQSHL | no change | changes | abolishes | abolishes | decreases |  |  |  |
